Sequences and labels used below:
B1: I-187 (peptide)
peptide: XDAXDEAAFAXFWA
modifications: not fully specified; As printed: Ac-PL3-Asp-Ala-B5-Asp-Glu-Ala-Ala-Phe-Ala-S8-Phe-Trp-Ala-NH2. N-terminal Ac; C-terminal amide; PL3 (1), B5 (4), S8 (11) stapled by olefin metathesis (PL3-B5 and B5-S8)
notes: Stapled peptide composition; this is the later-eluting isomer composition
B2: I-352 (peptide)
peptide: Ac-[αAllylPro]DA[B5(16)]DAAAFV[S8]FWQ-NH2
modifications: staple 1-4, 4-11
notes: Stapled peptide composition; also called Ac-PL3-Asp-Ala-B5-Asp-Ala-Ala-Ala-Phe-Val-S8-Phe-Trp-Gln-NH2
B3: I-333 (peptide)
peptide: Ac-[αAllylPro]DA[B5(4)]DDAAFS[S8]F[WCHO]S-NH2
modifications: staple 1-4, 4-11
notes: Stapled peptide composition; also called Ac-PL3-Asp-Ala-B5-Asp-Asp-Ala-Ala-Phe-Ser-S8-Phe-WCHO-Ser-NH2
B4: I-348 (peptide)
peptide: XAAXDDAAFVXFWQ
modifications: not fully specified; N-terminal Ac; PL3 at 1; B5 at 4; S8 at 11; C-terminal NH2; stapled PL3-B5 and B5-S8 (olefin metathesis)
notes: Stapled peptide composition; also called Ac-PL3-Ala-Ala-B5-Asp-Asp-Ala-Ala-Phe-Val-S8-Phe-Trp-Gln-NH2
B5: I-330 (peptide)
peptide: Ac-[αAllylPro]DA[B5(4)]DDAA[His(τ-Me)]V[S8]FWQ-NH2
modifications: staple 1-4, 4-11
notes: Stapled peptide composition; also called Ac-PL3-Asp-Ala-B5-Asp-Asp-Ala-Ala-1meH-Val-S8-Phe-Trp-Gln-NH2
B6: I-338 (peptide)
peptide: XDAXDDAAFVXFXQ
modifications: not fully specified; N-terminal Ac; PL3 at 1; B5 at 4; S8 at 11; 4CBMF at 12; BztA at 13; C-terminal NH2; stapled PL3-B5 and B5-S8 (olefin metathesis)
notes: Stapled peptide composition; also called Ac-PL3-Asp-Ala-B5-Asp-Asp-Ala-Ala-Phe-Val-S8-4CBMF-BztA-Gln-NH2
B7: I-331 (peptide)
peptide: Ac-[αAllylPro]DA[B5(14)]DDAAHV[S8]FWQ-NH2
modifications: staple 1-4, 4-11; not fully specified (residue 9)
notes: Stapled peptide composition; also called Ac-PL3-Asp-Ala-B5-Asp-Asp-Ala-Ala-3meH-Val-S8-Phe-Trp-Gln-NH2
B8: I-337 (peptide)
peptide: XDAXDDAAFVXFXQ
modifications: not fully specified; N-terminal Ac; PL3 at 1; B5 at 4; S8 at 11; 4CBMF at 12; BztA at 13; C-terminal NH2; stapled PL3-B5 and B5-S8 (olefin metathesis)
notes: as for B6
B9: I-336 (peptide)
peptide: Ac-[αAllylPro]DA[B5(4)]DDAAFV[S8][Phe(2-CONH2)][Bta]Q-NH2
modifications: staple 1-4, 4-11
notes: Stapled peptide composition; also called Ac-PL3-Asp-Ala-B5-Asp-Asp-Ala-Ala-Phe-Val-S8-2CBMF-BztA-Gln-NH2
B10: I-347 (peptide)
peptide: XDQXDDAAFVXFXQ
modifications: not fully specified; N-terminal Ac; PL3 at 1; B5 at 4; S8 at 11; BztA at 13; C-terminal NH2; stapled PL3-B5 and B5-S8 (olefin metathesis)
notes: Stapled peptide composition; also called Ac-PL3-Asp-Gln-B5-Asp-Asp-Ala-Ala-Phe-Val-S8-Phe-BztA-Gln-NH2
B11: I-341 (peptide)
peptide: Ac-[αAllylPro]DA[B5(9)]DDAAFV[S8]Y[Bta]Q-NH2
modifications: staple 1-4, 4-11
notes: Stapled peptide composition; also called Ac-PL3-Asp-Ala-B5-Asp-Asp-Ala-Ala-Phe-Val-S8-Tyr-BztA-Gln-NH2
B12: I-342 (peptide)
peptide: Ac-[αAllylPro]DA[B5(9)]DDAAFT[S8]F[Bta]Q-NH2
modifications: staple 1-4, 4-11
notes: Stapled peptide composition; also called Ac-PL3-Asp-Ala-B5-Asp-Asp-Ala-Ala-Phe-Thr-S8-Phe-BztA-Gln-NH2
B13: I-345 (peptide)
peptide: Ac-[αAllylPro]D[S(OMe)][B5(9)]DDAAFV[S8]F[Bta]Q-NH2
modifications: staple 1-4, 4-11
notes: Stapled peptide composition; also called Ac-PL3-Asp-S(OMe)-B5-Asp-Asp-Ala-Ala-Phe-Val-S8-Phe-BztA-Gln-NH2
B14: I-346 (peptide)
peptide: XDQXDDAAFVXFXQ
modifications: not fully specified; N-terminal Ac; PL3 at 1; B5 at 4; S8 at 11; BztA at 13; C-terminal NH2; stapled PL3-B5 and B5-S8 (olefin metathesis)
notes: as for B10
B15: I-332 (peptide)
peptide: Ac-[αAllylPro]DA[B5(14)]DDAAHV[S8]FWQ-NH2
modifications: staple 1-4, 4-11; not fully specified (residue 9)
notes: as for B7
B16: I-351 (peptide)
peptide: XDAXADAAFVXFWQ
modifications: not fully specified; N-terminal Ac; PL3 at 1; B5 at 4; S8 at 11; C-terminal NH2; stapled PL3-B5 and B5-S8 (olefin metathesis)
notes: Stapled peptide composition; also called Ac-PL3-Asp-Ala-B5-Ala-Asp-Ala-Ala-Phe-Val-S8-Phe-Trp-Gln-NH2
B17: I-350 (peptide)
peptide: XDAXADAAFVXFWQ
modifications: not fully specified; N-terminal Ac; PL3 at 1; B5 at 4; S8 at 11; C-terminal NH2; stapled PL3-B5 and B5-S8 (olefin metathesis)
notes: as for B16
B18: I-349 (peptide)
peptide: XAAXDDAAFVXFWQ
modifications: not fully specified; N-terminal Ac; PL3 at 1; B5 at 4; S8 at 11; C-terminal NH2; stapled PL3-B5 and B5-S8 (olefin metathesis)
notes: as for B4

Starred links: 1 amine or outer side, 2 acyl side, 3 side chain; linkers in the order of their positions; H or OH if unused. Positions of bridges follow the written chain, without caps; N, C: chain ends. Non-standard residues stand in square brackets, D forms with d. Primed or numbered codes have the meaning given here. B5(16) = 2-amino-2-(pent-4-en-1-yl)hept-6-enoic acid = 2,2-bis(4-pentenyl)glycine (stitching residue), C=CCCCC(CCCC=C)(N[*:1])C(=O)[*:2]; B5(4) = 2,2-bis(4-pentenyl)glycine = 2-amino-2-(pent-4-en-1-yl)hept-6-enoic acid (stitching residue), C=CCCCC(CCCC=C)(N[*:1])C(=O)[*:2]; B5(9) = 2-amino-2-(pent-4-en-1-yl)hept-6-enoic acid (2,2-bis(4-pentenyl)glycine), C=CCCCC(CCCC=C)(N[*:1])C(=O)[*:2]; B5(14) = 2-amino-2-(pent-4-en-1-yl)hept-6-enoic acid (bis-pentenylglycine), C=CCCCC(CCCC=C)(N[*:1])C(=O)[*:2]; WCHO = 1-formyl-L-tryptophan, O=Cn1cc(C[C@H](N[*:1])C(=O)[*:2])c2ccccc21; S(OMe) = O-methyl-L-serine, COC[C@H](N[*:1])C(=O)[*:2]; Phe(2-CONH2) = NC(=O)c1ccccc1C[C@H](N)C(=O)O; His(τ-Me) = Cn1cnc(C[C@H](N)C(=O)O)c1; Bta = N[C@@H](Cc1csc2ccccc12)C(=O)O; αAllylPro = C=CC[C@@]1(C(=O)O)CCCN1; S8 = C=CCCCCCC[C@](C)(N)C(=O)O

In one assay the target is T1, full-length beta-Catenin (Uniprot ID P35222) (Homo sapiens (Human), UniProt P35222 1-781).
T1 construct: Used full-length in the FP and AlphaScreen assays; also called B-Catenin; bCat
T1 sequence: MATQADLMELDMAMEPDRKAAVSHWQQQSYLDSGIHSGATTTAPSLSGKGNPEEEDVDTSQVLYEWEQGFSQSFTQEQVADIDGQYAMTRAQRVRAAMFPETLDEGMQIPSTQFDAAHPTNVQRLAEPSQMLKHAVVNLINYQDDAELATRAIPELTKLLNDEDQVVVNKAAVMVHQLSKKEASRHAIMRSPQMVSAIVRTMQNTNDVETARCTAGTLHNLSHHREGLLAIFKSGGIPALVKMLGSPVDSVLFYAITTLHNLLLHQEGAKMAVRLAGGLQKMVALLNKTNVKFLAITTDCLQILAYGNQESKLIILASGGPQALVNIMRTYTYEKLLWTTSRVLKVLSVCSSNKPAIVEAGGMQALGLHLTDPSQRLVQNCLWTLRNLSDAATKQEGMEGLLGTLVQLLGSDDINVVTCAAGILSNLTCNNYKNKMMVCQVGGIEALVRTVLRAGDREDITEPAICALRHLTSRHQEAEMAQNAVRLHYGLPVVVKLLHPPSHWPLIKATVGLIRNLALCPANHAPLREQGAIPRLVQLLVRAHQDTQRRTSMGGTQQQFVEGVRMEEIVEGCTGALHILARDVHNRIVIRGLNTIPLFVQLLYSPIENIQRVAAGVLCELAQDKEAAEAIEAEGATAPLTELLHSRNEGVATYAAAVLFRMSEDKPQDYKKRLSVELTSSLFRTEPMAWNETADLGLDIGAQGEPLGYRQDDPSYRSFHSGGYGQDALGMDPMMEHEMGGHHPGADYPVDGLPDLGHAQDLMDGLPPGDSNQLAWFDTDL
Kind of assay: fluorescence polarization competition; full-length beta-catenin + 5FAM-TCF4(10-53) probe as competitor; peptide titrated. The method, then: (§1) The plate was incubated protected from light for 60 minutes at 20° C. prior to read. Reads were performed on a CLARIOstar plate reader (BMG Labtech) in duplicate, and data were fitted to a 1:1 binding model with hill slope using an in-house script. All provided concentrations are final concentrations.
Turning to B1, the EC50 (in general, the concentration giving half of the maximal effect) came out at 3.32 µM.

The target in the next assay is T1, full-length beta-Catenin (Uniprot ID …). Description: AlphaScreen (nickel chelate) competition; full-length beta-catenin + biotin-TCF4(10-53) probe as competitor; peptide titrated. How it is done: Equal volume of the titrated peptide was added to the plate and incubated for 15 minutes at 20° C. Then 4 uL of donor and 4 uL acceptor beads at 10 ug/mL were added to the plate, for a 16 uL reaction pool and protected from light for 60 minutes at 20° C. prior to read. Reads were performed on a CLARIOstar plate reader (BMG Labtech) in duplicate, and data were fitted to a 1:1 binding model with hill slope using an in-house script. All provided concentrations are final concentrations.
Background: In Alpha technology, singlet oxygen from a donor bead excites a nearby acceptor bead.
For B1, the EC50 stood at 0.204 µM.

The target in the next assay is T2, full-length beta-Catenin (Uniprot ID P35222) (Homo sapiens (Human), UniProt P35222 1-781).
T2 construct: also called bCat; B-Catenin
T2 sequence: T1 sequence
Description: fluorescence polarization competition vs 5FAM-TCF4(10-53) on full-length beta-catenin. The method, then: as §1
(Fluorescence polarisation rises when a labelled molecule tumbles more slowly, as on binding a larger partner.)
With B2, the IC50 (in general, the concentration needed to halve the response being measured) worked out at 5 µM.

B3 came in with an IC50 of 2.76 µM.

Molecule B4 gave an IC50 of 5 µM.

B5 showed an IC50 of 5 µM.

As to B6, the IC50 turned out to be 5 µM.

Molecule B7 yielded an IC50 of 5 µM.

Take B8: the IC50 is 5 µM.

Consider B9, for which the IC50 was 0.153 µM.

B10: the IC50 was 0.121 µM.

Molecule B11 came in with an IC50 of 2 µM.

B12 returned an IC50 of 0.0585 µM.

Molecule B13 registered an IC50 of 0.134 µM.

The molecule B14 displayed an IC50 of 0.18 µM.

Take B15: the IC50 came to 5 µM.

With B16, the IC50 was 5 µM.

B17 returned an IC50 of 5 µM.

B18: the IC50 worked out at 5 µM.

(Values after patent publication US20240116985A1 (published 2024).)
